B1: 6mer-1-1174 (peptide)
peptide: RKDAIR
B2: 6mer-1-1175 (peptide)
peptide: RKTWEK
B3: 6mer-1-1176 (peptide)
peptide: KKADHK
B4: 6mer-1-1177 (peptide)
peptide: RRHTMR
B5: 6mer-1-1178 (peptide)
peptide: RKKMAK
B6: 6mer-1-1179 (peptide)
peptide: KRMTPR
B7: 6mer-1-1180 (peptide)
peptide: KRPPPK
B8: 6mer-1-1181 (peptide)
peptide: RRMDAK
B9: 6mer-1-1182 (peptide)
peptide: KKTCHR
B10: 6mer-1-1183 (peptide)
peptide: RKIHNK
B11: 6mer-1-1184 (peptide)
peptide: RRDTVK
B12: 6mer-1-1185 (peptide)
peptide: KKEMMK
B13: 6mer-1-1186 (peptide)
peptide: KKNNAK
B14: 6mer-1-1187 (peptide)
peptide: RRHAHK
B15: 6mer-1-1188 (peptide)
peptide: RRMNER
B16: 6mer-1-1189 (peptide)
peptide: KKCHWR
B17: 6mer-1-1190 (peptide)
peptide: KKCMKR
B18: 6mer-1-1191 (peptide)
peptide: RKYTKK
B19: 6mer-1-1192 (peptide)
peptide: RKDDDR
B20: 6mer-1-1193 (peptide)
peptide: KKPTNK
B21: 6mer-1-1194 (peptide)
peptide: KKTHAK
B22: 6mer-1-1195 (peptide)
peptide: KRDEDK
B23: 6mer-1-1196 (peptide)
peptide: KKTTGR
B24: 6mer-1-1197 (peptide)
peptide: KRPMAK
B25: 6mer-2-535 (peptide)
peptide: KLFCRR
B26: 6mer-2-536 (peptide)
peptide: RWQRKK
B27: 6mer-2-537 (peptide)
peptide: KVLCKR
B28: 6mer-2-538 (peptide)
peptide: KQFCKK
B29: 6mer-2-539 (peptide)
peptide: KWYTKK
B30: 6mer-2-540 (peptide)
peptide: KRLTRR
B31: 6mer-2-541 (peptide)
peptide: KGQCRK
B32: 6mer-2-542 (peptide)
peptide: RQIYRR
B33: 6mer-2-543 (peptide)
peptide: RRQYRR
B34: 6mer-2-544 (peptide)
peptide: KVIQKR
B35: 6mer-2-545 (peptide)
peptide: KLYCRK
B36: 6mer-2-546 (peptide)
peptide: RVFTKK
B37: 6mer-2-547 (peptide)
peptide: RWQCKR
B38: 6mer-2-548 (peptide)
peptide: RLQCRR
B39: 6mer-2-549 (peptide)
peptide: KQLCKK
B40: 6mer-2-550 (peptide)
peptide: RSFTKK
B41: 6mer-2-551 (peptide)
peptide: KWYTKR
B42: 6mer-2-552 (peptide)
peptide: RGLLRR
B43: 6mer-2-553 (peptide)
peptide: RSLQKK
B44: 6mer-2-554 (peptide)
peptide: RWRCRR
B45: 6mer-2-555 (peptide)
peptide: RSVSKK
B46: 6mer-2-556 (peptide)
peptide: RSICKK
B47: 6mer-2-557 (peptide)
peptide: KWVLRK
B48: 6mer-2-558 (peptide)
peptide: KSVCKK
B49: 6mer-2-559 (peptide)
peptide: KGQLRR
B50: 6mer-2-560 (peptide)
peptide: RQYTRR
B51: 6mer-2-561 (peptide)
peptide: RRVLKK
B52: 6mer-2-562 (peptide)
peptide: RQQRKR
B53: 6mer-2-563 (peptide)
peptide: KGYQKR
B54: 6mer-2-564 (peptide)
peptide: KQVYRK
B55: 6mer-2-565 (peptide)
peptide: KSRRRR
B56: 6mer-2-566 (peptide)
peptide: KRLSKK

target: acetylcholine receptor; assay: SPR, AchR on CM5 chip, peptide 10 µM

Binder | Binding affinity (RU)
B1 | 30 RU
B2 | 23 RU
B3 | 21 RU
B4 | 21 RU
B5 | 29 RU
B6 | 40 RU
B7 | 34 RU
B8 | 21 RU
B9 | 35 RU
B10 | 35 RU
B11 | 30 RU
B12 | 29 RU
B13 | 37 RU
B14 | 26 RU
B15 | 41 RU
B16 | 40 RU
B17 | 29 RU
B18 | 39 RU
B19 | 36 RU
B20 | 33 RU
B21 | 22 RU
B22 | 25 RU
B23 | 25 RU
B24 | 21 RU

target: acetylcholine receptor; assay: SPR, acetylcholine receptor on CM5 chip, peptide 10 µM

Binder | Binding affinity (RU)
B25 | 133 RU
B26 | 125 RU
B27 | 153 RU
B28 | 125 RU
B29 | 127 RU
B30 | 142 RU
B31 | 126 RU
B32 | 148 RU
B33 | 144 RU
B34 | 147 RU
B35 | 125 RU
B36 | 127 RU
B37 | 135 RU
B38 | 142 RU
B39 | 142 RU
B40 | 148 RU

Binder | Binding affinity (RU)
B41 | 141 RU
B42 | 148 RU
B43 | 124 RU
B44 | 121 RU
B45 | 154 RU
B46 | 148 RU
B47 | 123 RU
B48 | 154 RU
B49 | 121 RU
B50 | 153 RU
B51 | 142 RU
B52 | 136 RU
B53 | 131 RU
B54 | 148 RU
B55 | 147 RU
B56 | 139 RU
